Experiments:
[1] = molecular target: T1, M2 muscarinic acetylcholine receptor (M2AchR), rat (rat, UniProt P10980 1-466); assay: cell-based or functional assay
T1 sequence (looked up): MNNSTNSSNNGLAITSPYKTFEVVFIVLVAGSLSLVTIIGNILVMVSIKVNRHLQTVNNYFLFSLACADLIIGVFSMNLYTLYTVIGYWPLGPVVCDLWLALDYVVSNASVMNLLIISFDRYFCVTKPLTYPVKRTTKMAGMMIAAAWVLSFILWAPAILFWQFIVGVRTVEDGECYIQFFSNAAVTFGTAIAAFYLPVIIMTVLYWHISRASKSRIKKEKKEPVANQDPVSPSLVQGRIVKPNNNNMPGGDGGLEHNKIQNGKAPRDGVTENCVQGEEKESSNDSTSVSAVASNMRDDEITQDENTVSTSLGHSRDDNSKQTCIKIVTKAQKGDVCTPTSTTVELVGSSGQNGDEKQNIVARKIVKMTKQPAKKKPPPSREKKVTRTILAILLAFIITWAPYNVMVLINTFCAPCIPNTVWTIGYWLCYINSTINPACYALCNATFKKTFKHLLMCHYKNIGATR

[2] = molecular target: sweet receptor heterodimer (T1 R2/T1 R3); assay: cell-based or functional assay

B1: Gαs-Gαi-13 (SEQ ID NO: 5) (other)
chain: MGCLGNSKTEDQRNEEKAQREANKKIEKQLQKDKQVYRATHRLLLLGAGESGKSTIVKQMRILHVNGFNGEGGEEDVPDYASNSDGEKATKVQDIKNNLKEAIETIVAAMSNLVPPVELANPENQFRVDYILSVMNVPNFDFPPEFYEHAKALWEDEGVRACYERSNEYQLIDCAQYFLDKIDVIKQADYVPSDQDLLRCRVLTSGIFETKFQVDKVNFHMFDVGGQRDERRKWIQCFNDVTAIIFVVASSSYNMVIREDNQTNRLQEALNLFKSIWNNRWLRTISVILFLNKQDLLAEKVLAGKSKIEDYFPEFARYTTPEDATPEPGEDPRVTRAKYFIRDEFLRISTASGDGRHYCYPHFTCAVDTENIRRVFNDCRDVIIKNNLKDCGLF
- increase in SEAP activity in response to 10 uM acetylcholine (CRE-SEAP reporter, HEK-293) [1]: 10 fold
- increase in SEAP activity, cells transiently expressing the chimera (10 uM acetylcholine) [1]: ~10 fold
- increase in SEAP activity (5 mM saccharin) [2]: ~2 fold

B2: Gαs-Gαz-13 (SEQ ID NO: 6) (other)
chain: MGCLGNSKTEDQRNEEKAQREANKKIEKQLQKDKQVYRATHRLLLLGAGESGKSTIVKQMRILHVNGFNGEGGEEDVPDYASNSDGEKATKVQDIKNNLKEAIETIVAAMSNLVPPVELANPENQFRVDYILSVMNVPNFDFPPEFYEHAKALWEDEGVRACYERSNEYQLIDCAQYFLDKIDVIKQADYVPSDQDLLRCRVLTSGIFETKFQVDKVNFHMFDVGGQRDERRKWIQCFNDVTAIIFVVASSSYNMVIREDNQTNRLQEALNLFKSIWNNRWLRTISVILFLNKQDLLAEKVLAGKSKIEDYFPEFARYTTPEDATPEPGEDPRVTRAKYFIRDEFLRISTASGDGRHYCYPHFTCAVDTENIRRVFNDCRDVIIQNNLKYIGLC
- increase in SEAP activity in response to the 10 uM acetylcholine ligand [1]: ~2 fold

B3: Gαs-Gα15-13 (SEQ ID NO: 7) (other)
chain: MGCLGNSKTEDQRNEEKAQREANKKIEKQLQKDKQVYRATHRLLLLGAGESGKSTIVKQMRILHVNGFNGEGGEEDVPDYASNSDGEKATKVQDIKNNLKEAIETIVAAMSNLVPPVELANPENQFRVDYILSVMNVPNFDFPPEFYEHAKALWEDEGVRACYERSNEYQLIDCAQYFLDKIDVIKQADYVPSDQDLLRCRVLTSGIFETKFQVDKVNFHMFDVGGQRDERRKWIQCFNDVTAIIFVVASSSYNMVIREDNQTNRLQEALNLFKSIWNNRWLRTISVILFLNKQDLLAEKVLAGKSKIEDYFPEFARYTTPEDATPEPGEDPRVTRAKYFIRDEFLRISTASGDGRHYCYPHFTCAVDTENIRRVFNDCRDSVLARYLDEINLL
- increase in SEAP activity in response to the 10 uM acetylcholine ligand [1]: ~2 fold
